Assay results taken from publication PMC6032326, “Connexin43 Carboxyl-Terminal Domain Directly Interacts with β-Catenin” (International Journal of Molecular Sciences, 2018).
Values joined by “and” are separate entries in the source; they are usually repeats but may differ in a detail not shown here. Equal entries are not always repeated.

Columns and labels:
[1] = target: T1, Connexin43 carboxyl-terminal domain (V236–I382) (rat, UniProt P08050 236-382, 15N-labelled); experiment: NMR titration; 15N-HSQC at 7 °C; 15N-labelled Cx43CT (WT, Y313D or Y265,313D) at constant 35 μM, unlabelled β-catenin, β-catenin CT or β-catenin ΔCT added up to 285 μM; 1x PBS pH 7.8, 2 mM dithiothreitol; KD from the fit of the decrease in signal intensity; settings: both partners purified
T1 construct: Connexin43 (Cx43), rat, carboxyl-terminal domain, residues V236-I382; pGEX-6P-2 carries a PreScission site, so GST was probably cleaved (surmise); also called Cx43CT; Cx43CT WT; source: bacterial expression vector pGEX-6P-2, expressed and purified in 1x PBS as previously described

Cx43CT Y313D = target: T2, Cx43CT Y313D (rat, UniProt P08050 236-382, Y313D, 15N-labelled); experiment: as above; settings: both partners purified
T2 construct: Connexin43 (Cx43), rat, carboxyl-terminal domain, residues V236-I382, with the phosphomimetic Y313D; The mutation was put into 'the Cx43CT plasmid'; also called single phosphomimetic; source: bacterial expression vector pGEX-6P-2, expressed and purified in 1x PBS as previously described

Kd [1]: 210 µM and 202 µM
Kd (Cx43CT Y313D): 341 µM
B1: β-catenin carboxyl-terminal (CT) domain (S681–L781) (domain or fragment, human, UniProt P35222 681-781, looked up)
chain: SLFRTEPMAWNETADLGLDIGAQGEPLGYRQDDPSYRSFHSGGYGQDALGMDPMMEHEMGGHHPGADYPVDGLPDLGHAQDLMDGLPPGDSNQLAWFDTDL
notes: β-catenin, human, C-terminal domain, residues S681-L781; also called β-catenin CT; β-catenin CT domain
